Experimental data from the NTF2 design screens of Basanta et al. (2020).

test: protease stability score; higher = more stable; yeast display proteolysis, trypsin and chymotrypsin;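 also: log10 excess protease needed over predicted unfolded state with 0 meaning unfolded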

Row | Sequence | protease stability score
1 | DEEALHILERFLKLMETNDEETLRDLVDPNAENRVGDKTVHGREDFQREVHTMKKQWRVRFRHIDNQSRPNEAVVRANVNNDINGRPITEDVVFRADFKNGKLKSLHIQMPEEYKKELDK | 0.455
2 | DEEALHLATQLYTNWRNNNPEEVVKLLDENARINVGDFNVTGRNNVRSTLEHLNREMHFEMRISSVDDHNGRAHLTVEARKNINGQPRNVSMKMEVQFHNGKIQQIVAHMPEEDIRTLQS | 0.811
3 | DEEALKFAETFLEVLHKGNPDDLRRLIDENVEIKIGDHEIDGMDNAVKQLHTRIKEINMHIKVDSMKAQGDSIKIHFTREVHRDGRPDTRHATLIMRFNNGELQRFQVDDRQ | 0.335
4 | DEEALKHAKKLLNIITNGNPSEAQKLFDPNAKAHIGDQTLTGREDYVRDLQEKKDRMRYKIKSMDAQTDGEKVRFDIKYDFNINGQPRHASVVIRLKLHNGKIVEIRVQIDPEQLKQHRQ | 1.09
5 | DEEALKKLQDILRRNDQDKMNKMIDKDVRVVIGEHEYRGKRNVQEALKREYEHADRFEVKHIEDHGDKLHVDVVLRVDGRDIRFVVVIDVHNGNIRNVKVDFTDEDTQRDFQRQLD | 1.01
6 | DEEALKKMVDTLLKYVEQGNIKDIQQILKENVEFKLGDTEYKGVEHAKRDVKKLKDAGVEVHVKKTEVEGDTAHVETVWHAGDYEMHVTVQYVVRGDKVEKVEVRWSEEAKKALKVG | 0.24
7 | DEEALKLLESLMEAVKTNNEERLKSLVDPNAHFQYGDKTLHGMEDWAKEVVRRMREIHVEWEWHTWSVHNGQIVVDVHARLEINGRPVHWKERIIVELENGKVKSMVFQISEEEKKHIDG | 1.6
8 | DEEALKNVKENLEDGDWDNLAKQADENATWVYGEKRVHGRRDLKKYAEAMKRQIDHWSIRSITTRGNKASVNAEVQVNGHRRSFHIEVEVENGHIKHWNMNFTDPTDERKVLKILE | -0.017
9 | DEEALKNWEHQLRAHEQGDENRLKELADPNVRYRVGNHEIRGMQQRVEDASRVKEHMRVQMSIQEVEVRGDKFDATATAEYVVNGRPQQITYKFSFHAHNGKIKNLDVRLDEDQQRKLEK | 0.184
10 | DEEALKQAEEILTQRQTGNPQEVMKNMDKNVKFDYGDKTIHGKENLEKDVEKERTEMRYEIKSVEFRARGNKVVADFRATFNVNGHPFSVRVVFIAHFEDGKIKKATENVSEEQRKKMKS | 0.084
11 | DEEALKRVEKFWEALNTGNEDELRKQLDPNARIRIGDKDIQGREDMAKWVRRVNRQMKMTVTIEDMQTRPGRAEIDAKASVNHNGRPNQHDVKLSAEFHNGQITSLTVQLKG | 0.592
12 | DEEALKVLKEWIKAVETGDEERIKELVDKDVTVQVGDKVIRGREQVAKTVRKEREEMRVEINFDRLHADGDRVSAEFKVVEETNGRPNTKKQRMSARVHNGKFKSMEIQDDG | 0.205
13 | DEEALNLFHRMINAIQENDPDTLHRLVDPNARIQIGDHDIHGMKTYVREVEKTLRSMRIKFDIKSVDVTGDKVVIDEKVDFDINGKPVHNKVEMRIKAHNGTVKHLDWKVPEDELKKIEE | -0.232
14 | DEEALNNLHEFFKHWNTGNPHELMKLADPNVRFQVGEKVIHGREEFMKDIKRIREELRQEIDVRDVKVQGEKLIVKATRSEERNGKPSSDTIHMTARVHNGRIKSVDIKSTS | 0.435
15 | DEEAMKRFQELLDVLRTGDENRAKKLMDENVHLLVGDKEINGRDHAAKTMAQTYREMRIEYKTVKRDVTNGVVHVRMRYVKEHNGTPNDRVVLVEVRFHNGRLKVLNRNEKD | 0.352
16 | DEEAMKVFEEIMRAIEQGDPDRIIENADEDVRFDVGDKRLHGREKAAKDLVDFLHHQRTHIRSYDTSVSGEKLTLDVDMVNQNNGNPNSKRYTVDAHVHNGKLKSVKETDDQ | -0.27
17 | DEEANDLFRQIQTAENDNNPDEITELFDENATFRVGDRVIKGREKYAHKVVENLQKWRFTWDRIDVKARNGHARVTIRMTFNVNGKPDSYQAVMHLQFSNGRVQEIHMDIDPRKAKELLK | 0.124
18 | DEEANEMAKSYLEAKTRGDPRSAKELADKDAEFVVGDKTYQGMDENSDNMRRERDEQRTKVKILHLDDRPNHAVIKYRVEVQTNGQPRTKNYELNLQYSNGKIKYVRVEDRK | -0.027

Row | Sequence | protease stability score
19 | DEEANKIAKKFQEALRKGDENRLKELVDPNVRMEYGDHSIHGREELEKDVRKKKRDMRVKITLDHMEDNGSEVTAKVRWTQEHNGTPDSTHFSARFDFTDGRLKHYDQNDSG | -0.009
20 | DEEANKNMKDMWRTGDWKQIAENADEDAHYQVGDKKFSGREQVQTFIELLQNRVDDQNIRDMEDKGNEIDIEFTVVINGRKLVLHATVQAHNGRVKSWTVKVTDRDDKRKLDEALR | 0.307
21 | DEEANKVAKKLWEAIDHGNKEQAKELADPNAKAHVGDKSIHGMDTFVTWIKEIFDTMSFEVRIEDMKVHNGRLSANVRATFDINGQPRHQQARFKMDIHNGKISKVVIEMPKEKWKTILR | 0.97
22 | DEEANKVIDRLLKAIKHNNPDQAQHNMDEDVRIRIGDQEINGREQAKKEIRKRNEKMRINIDEVTLNEHPNKVRIQYRYKVDVNGRPVRNSAHMEARVSNGKVKEIDVRVSEDQKRHEER | 0.018
23 | DEEAQELAERVFKALQTGDPDTLVKNMDPNVRLDVGDKKIQGREEAKKHADRLRHEQKVEYDSYEVRVHDGRVVVRLHWKFTVNGHPRTLTLTVEMKAHNGKVKHFSQRVPEDVLRKMKS | -0.049
24 | DEEAQEVVEDMLRAIDKGDEDQIRRNVDKDAKVKVGNHELHGREQIAKFLSKERNEIEQSFQYESVTVDGDKIKFQFEMSRNVNGKPMRVSAQAEADAHNGKIRHFKVNVDTDVERRIDS | -0.165
25 | DEEAQEVYHRLRKVLENNNPKEFEENVDKDVRFNIGDKRIHGREQASKDWKSRMEEQHRKITRVENQSHGNEFEVRAKVNYDHNGQPRQQDLSAHVVAENGKLKMATYEVRK | 0.018
26 | DEEAQKAAERVWKAIERGNEEELHRLIDPDVRIKVGDKDYHGREHYVESVVEIMTTIRFTIHRMEIKVSGERVIIEYHYEFSVNGQPDTMRVIVYMVAHNGKVKNIHVKMSPEKRDRFRE | 1.05
27 | DEEAQKHIQQMFHAIDHGNPEKVKELADPNVNIEVGDKRYHGMDTWVREIEKTKKEMRVSVEHVKVDDRNGRAKIDVIMNNEVNGKPVRDRKTATADVHNGKIKSLQYQFSEDQKKKDEG | -0.472
28 | DEEAQKHLREFFKNQETGDPDKLMEMVDENVHWQVGDKTIEGRDTMKQDFDRRRKELRYHVDIKKVNAHNGRIRARATFHNEHNGKPKSFQAIVVAVITNGRIKSIHVQKRQ | -0.037
29 | DEEAQKKVEEWERAIEHGNEQQARELADKDVRIEVGDQRVRGMEDIARTQVRKQREITRHVRRFDAHATGDKIRVELVFEVHHDGQPRHQKYELRMVMHNGRVHSVRVETRR | 0.412
30 | DEEAQKLLDMLRKAEQTGDEDRVRQLADEDVKVRIGDKVIHGREEWARHVRRERNEMRFKIQDLKVDVQGDHLSVKYTAHRDHNGQPQSDTYHYTLQMHNGRIKHLNVTEEK | -0.004
31 | DEEAQKQAEHLIRNLEQGNEDQIERLADPNARFQYGNKEINGREEMSTWVRRYKKQARLEIKSVSADAQGDKITVDVHFVIDINGRPSTMRVNVVMSIDNGSINHMVFEIDEEQEKELNK | 0.202
32 | DEEAQKQFEEFLDVLETGDPKRLQDNMDEDARVVIGDKTITGREEAAKEWHKIRQEISVEIKHVHMEAQGDKLNATLDVVWNVNGRPHRFKFVIIMDFHNGRIKQIEIRMDERHLKKLRT | 0.499
33 | DEEAQKRAEELIRILQTGDPDKLMEMFDKDAHATIGDQTVRGREDMRRRQKELKETMDVKLDITDVKVTGEKIDIRIKATFNYNGQPAEDTIVFIIQQHNGRVQRFEVRIDEDVLRQLKK | 0.184
34 | DEEAQKRAQTFFHILEHGDPKKLSKLFDKDAKFVVGEQRINGMQQYEQWFRDVYKKIRVTMKLVSVHVTGNKIDIKAKVEWHVNGRPLTFDLDIKINFHNGKMKEAVFHVDSDFLRKLKR | 0.63
35 | DEEAQKTAEDFLRAFQDGNHEQLLKLMDKDAQAQYGDQRLHGREKLRQHIYELLKNIRLEYSIDDVKVDGNNVRIHMQYEAEVNGQPVKDKAKVDIVFHNGKIKTFMVHFSEEYVQTVRS | 0.903
